Test results published in patent US20110159050A1, “AMPHIPHILIC PROTEINS AS MORPHOLOGY MODIFIERS” (BASF SE, priority 2008, published 2011).
“Also recorded” adds a separate entry of the source.

B1: SC: class I hydrophobin from Schizophyllum commune, produced recombinantly in E. coli (protein, UniProt P16933 25-136, looked up)
Class I hydrophobin SC3: GGHPGTTTPPVTTTVTVTTPPSTTTIAAGGTCTTGSLSCCNQVQSASSSPVTALLGLLGIVLSDLNVLVGISCSPLTVIGVGGSGCSAQTVCCENTQFNGLINIGCTPINIL
modifications: recombinant in E. coli
B2: PO: class I hydrophobin from Pleurotus ostreatus, produced recombinantly in E. coli (protein, UniProt O60048 22-113, looked up)
Class I hydrophobin POH3: IPRTNPPAPTCTTGSLQCCNSVQAASNPVVGLLAGLLGIVLGPITGQVGLTCSPITVIGVGGTSCSAQTVCCNGNSFNGLIVVGCSPVNISL
modifications: recombinant in E. coli

Tests used:
[1] = Crystallisation and redispersion of Venlafaxine (IPA, visual assessment); type: physicochemical; conditions: for re-suspension on pouring after vigorous shaking (Vortex) for 10-15 sec: Venlafaxine crystallized over night; for (RT) dispersability: Venlafaxine crystals
Protocol: 15 g of Venlafaxine (Ciba) are dissolved in 150 mL IPA. Aliquots of 10 mL of the resulting solution are transferred into 15 mL sealable polypropylene tubes that have been pre-heated to 95° C. To assure uniform temperature, the tubes are agitated for 15-30 min at 80° and 750 rpm on a thermomixer (Eppendorf Thermomixer Comfort), then 100 μL of the protein solution (prepared according to the method given in example 1) is added. Control samples are treated in the same way except that 100 μL of pure water are added instead of the hydrophobin solution, or no API is present.
(§1) The results of a visual assessment after the hydrophobin injection (final concentration in the sample is 100 ppm) are compiled in the following table.
The mother liquor crystallizes completely over night, with crystals adhering together covered by the solvent.

[2] = Crystallisation of paracetamol in presence of hydrophobins (cooling from 95° C. to RT, visual assessment); type: physicochemical; conditions: 100 ppm protein; for visual assessment after 0 min (protein without API; no clouding = no denaturation): no API present, 95° C.; for visual assessment after 0 min / visual assessment <5 min: paracetamol present; for visual assessment after 0 min: after injection at 95° C.; for visual assessment <5 min: cooling at RT
Protocol: The hydrophobin solution is prepared by solubilization of 10 mg of lyophilized powder (protein content at least 60-80%) in 1 mL pure water. Insoluble residues are removed by centrifugation.
15 g of API (Paracetamol, Sigma) are dissolved in 150 mL pure water. Aliquots of 10 mL of the resulting solution are transferred into 15 mL sealable polypropylene tubes that have been pre-heated to 95° C. in order to prevent the onset of crystallization. To ensure uniform temperature, the tubes are shaken for 15-30 min at 95° and 750 rpm on a thermomixer (Eppendorf Thermomixer Comfort), then 100 μL of the hydrophobin solution is added under continued mixing at 95° C.; final protein concentration in the sample is 100 ppm. After 1-2 min the tubes are withdrawn from the thermomixer to allow cooling without shaking at RT. Control samples are treated in the same way except that 100 μL of pure water are added instead of the hydrophobin solution, or no API is present.

[3] = Atorvastatin crystallisation by evaporation on protein-coated object slides; type: physicochemical; conditions: object slides coated with protein (100 μg protein/mL over night), vs non-coated control
Protocol: b) In a further set of tests, object slides are coated with protein by incubation in a solution as prepared according to the method given in example 1 (100 μg protein/mL) over night. The object slides then are washed and air dried before 50 μL of Atorvastatin solution as described above is coated on the slide.

[4] = Crystallisation of Atorvastatin by evaporation in dishes, microscopic inspection; type: physicochemical; conditions: Atorvastatin in water/acetonitrile, 100 ppm hydrophobin, vs hydrophobin-free control
Protocol: a) 15 g of Atorvastatin (Ciba) are dissolved in 75 mL pure water and 75 mL acetonitrile by heating to 50° C. and stirring for 2 h. The resulting solution is filtered (0.45 μm). Aliquots of 10 mL are transferred into 15 mL sealable polypropylene tubes that have been pre-heated to 50° C. in order to prevent the onset of crystallization. To assure uniform temperature, the tubes are shaken for 15-30 min at 50° and 750 rpm on a thermomixer (Eppendorf Thermomixer Comfort), then 100 μL of the protein solution (prepared according to the method given in example 1) is added (final concentration: 100 ppm). Control samples are treated in the same way except that 100 μL of pure water are added instead of the hydrophobin solution, or no API is present.
1 mL of each sample is poured into dishes (Ø5 cm) in order to allow crystallization by evaporation. The dried crystals (˜20 h later) are microscopically inspected.

[5] = from 72; at 50 microgram/ml; cited from earlier work
[6] = Crystallisation of benzamide in presence of SC, PO, TT or TR (cooling, visual assessment); type: physicochemical; conditions: 100 ppm protein
Protocol: 15 g of benzamide (Fluke) are dissolved in 150 mL pure water. Aliquots of 10 mL of the resulting solution are transferred into 15 mL sealable polypropylene tubes that have been pre-heated to 95° C. in order to prevent the onset of crystallization. To assure uniform temperature, the tubes are shaken for 15-30 min at 95° and 750 rpm on a thermomixer (Eppendorf Thermomixer Comfort), then 100 μL of the hydrophobin solution (prepared according to the method given in example 1) is added (the tubes are still shaken to allow homogeneous mixing and tempering). After 1-2 min the tubes are withdrawn from the thermomixer to allow cooling without shaking at RT. Control samples are treated in the same way except that 100 μL of pure water are added instead of the hydrophobin solution, or no API is present.
as §1

[7] = Venlafaxine in IPA, 100 ppm protein

| Molecule | re-suspension on pouring after vigorous shaking (Vortex) for 10-15 sec [1] | (RT) dispersability [1] | visual assessment 120 min [1, 7] | visual assessment after 0 min [1, 7] | visual assessment after 0 min (protein without API; no clouding = no denaturation) [2] | visual assessment after 0 min [2] | visual assessment <5 min [2] | crystal size 15 min ([2]; paracetamol) | crystal size >20 h ([2]; paracetamol) | crystal growth by evaporation on coated glass surface [3] | crystal growth after crystallization by evaporation [4] | crystal size 15 min [6] | crystal size <5 min [6] | crystal size >20 h [6] | visual assessment <5 min [6] | visual assessment after 0 min [6] | further results |
| --- | --- | --- | --- | --- | --- | --- | --- | --- | --- | --- | --- | --- | --- | --- | --- | --- | --- |
| B1 | complete emptying of the tubes | Best dispersability and best | crystals | streaks | clear | streaks | clear | cryst. 0.1-0.2 mm | crystals 0.5 mm | more regular crystal growth; also recorded: more evenly crystal growth | more evenly crystal growth | crystals 0.1-0.2 mm | 0.1-0.2 mm | crystals 0.5-1 mm | few crystals | clouding | visual assessment 20 min [1, 7]: clear; visual assessment <5 min [1, 7]: clear; maximal lowering of the water surface tension [5]: 24 mJ m^−2 |
| B2 | predominantly the remaining mother liquor is poured out | poor | crystals | clouding | clear | clouding | few crystals | cryst. 0.2-0.5 mm | crystals 0.5-1 mm | more regular crystal growth; also recorded: more evenly crystal growth | more evenly crystal growth | crystals 0.2-0.5 mm | 0.2-0.5 mm | crystals 0.5-1 mm | few crystals | clouding | crystal size 20 min [1, 7]: crystals 0.2 mm; crystal size <5 min [1, 7]: crystals 0.1 mm; crystal size <5 min ([2]; paracetamol): 0.2-0.5 mm |
